Source: article PMC6599971

Columns and labels:
[1] = biological target: N-terminally 6×His-tagged FilP expressed in E. coli (Streptomyces coelicolor); experiment: ultracentrifugation sedimentation assay; His-N-FilP 200 μg/ml dialysed against 50 mM Tris-HCl pH 6.8 with 0.2 M KCl and 1 M NaCl; 135,000-300,000g, 15-30 min, 25°C
[2] = biological target: N-terminally 6×His-tagged FilP expressed in E. coli (Streptomyces coelicolor); experiment: ultracentrifugation sedimentation assay; His-N-FilP 200 μg/ml dialysed against 50 mM Tris-HCl pH 6.8 with 5 mM MgCl2; 135,000-300,000g, 15-30 min, 25°C
[3] = biological target: N-terminally 6×His-tagged FilP expressed in E. coli (Streptomyces coelicolor); experiment: ultracentrifugation sedimentation assay; His-N-FilP 200 μg/ml dialysed against 50 mM Tris-HCl pH 6.8 with 1 M NaCl; 135,000-300,000g, 15-30 min, 25°C
[4] = biological target: N-terminally 6×His-tagged FilP expressed in E. coli (Streptomyces coelicolor); experiment: ultracentrifugation sedimentation assay; His-N-FilP 200 μg/ml dialysed against 50 mM Tris-HCl pH 6.8 with 0.2 M KCl; 135,000-300,000g, 15-30 min, 25°C
[5] = biological target: N-terminally 6×His-tagged FilP expressed in E. coli (Streptomyces coelicolor); experiment: ultracentrifugation sedimentation assay; His-N-FilP 200 μg/ml dialysed against 50 mM Tris-HCl pH 6.8 with 1 M NaCl; 135,000-300,000g, 15-30 min, 25°C; remark: listed apart in the source
[6] = biological target: N-terminally 6×His-tagged FilP expressed in E. coli (Streptomyces coelicolor); experiment: turbidity (light scattering at 350 nm); His-N-FilP at 20-200 μg/ml dialysed against Tris assembly buffer; 96-well plate
[7] = biological target: N-terminally 6×His-tagged FilP expressed in E. coli (Streptomyces coelicolor); experiment: ultracentrifugation sedimentation assay; His-N-FilP 200 μg/ml dialysed against Tris pH 8.8; 135,000-300,000g, 15-30 min, 25°C

percent of added protein recovered in the supernatant after ultracentrifugation [1]: 63%
percent of added protein recovered in the supernatant after ultracentrifugation [2]: 11%
percent of added protein recovered in the supernatant after ultracentrifugation [3]: 40%
percent of added protein recovered in the supernatant after ultracentrifugation [4]: 25%
percent of added protein recovered in the supernatant after ultracentrifugation [5]: 35%
critical concentration for filamentation [6]: 33 µg/mL
percent of total FilP soluble (in the supernatant after ultracentrifugation) [7]: 32%
Substance: N-terminally 6×His-tagged FilP expressed in E. coli (natural protein)
